Measurements: patent US20240287484

What was measured:
Conditions in all cases: qPCR; 3 mM MgCl2, 37 C
[1] = tested on: T1, MG153-19 RT (uncultivated organism (metagenomic))
T1 sequence: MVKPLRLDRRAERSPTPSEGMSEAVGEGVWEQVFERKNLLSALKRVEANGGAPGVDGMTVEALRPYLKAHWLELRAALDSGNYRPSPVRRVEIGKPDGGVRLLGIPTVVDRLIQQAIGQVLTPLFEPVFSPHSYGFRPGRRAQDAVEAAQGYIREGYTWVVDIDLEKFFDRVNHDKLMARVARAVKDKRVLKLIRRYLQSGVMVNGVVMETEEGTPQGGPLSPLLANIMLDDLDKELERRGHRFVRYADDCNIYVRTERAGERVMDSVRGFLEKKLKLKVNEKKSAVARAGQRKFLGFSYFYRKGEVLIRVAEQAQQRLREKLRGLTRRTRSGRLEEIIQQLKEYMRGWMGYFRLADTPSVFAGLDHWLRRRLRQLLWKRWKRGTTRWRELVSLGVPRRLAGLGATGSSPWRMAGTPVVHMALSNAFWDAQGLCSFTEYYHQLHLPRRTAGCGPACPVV

[2] = tested on: T2, MG153-17 RT (uncultivated organism (metagenomic))
T2 sequence: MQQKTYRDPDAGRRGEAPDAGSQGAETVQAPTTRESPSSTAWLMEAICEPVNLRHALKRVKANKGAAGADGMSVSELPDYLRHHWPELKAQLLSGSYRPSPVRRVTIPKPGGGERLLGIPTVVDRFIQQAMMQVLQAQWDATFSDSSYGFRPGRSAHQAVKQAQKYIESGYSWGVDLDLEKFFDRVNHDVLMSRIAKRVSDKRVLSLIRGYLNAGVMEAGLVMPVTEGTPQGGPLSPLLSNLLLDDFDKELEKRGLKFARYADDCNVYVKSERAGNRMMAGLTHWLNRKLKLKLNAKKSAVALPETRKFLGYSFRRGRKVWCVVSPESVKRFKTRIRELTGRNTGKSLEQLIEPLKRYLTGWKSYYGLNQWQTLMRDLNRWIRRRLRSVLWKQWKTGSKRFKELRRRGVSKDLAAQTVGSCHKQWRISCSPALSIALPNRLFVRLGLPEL

[3] = tested on: T3, MG153-32 RT (uncultivated organism (metagenomic))
T3 sequence: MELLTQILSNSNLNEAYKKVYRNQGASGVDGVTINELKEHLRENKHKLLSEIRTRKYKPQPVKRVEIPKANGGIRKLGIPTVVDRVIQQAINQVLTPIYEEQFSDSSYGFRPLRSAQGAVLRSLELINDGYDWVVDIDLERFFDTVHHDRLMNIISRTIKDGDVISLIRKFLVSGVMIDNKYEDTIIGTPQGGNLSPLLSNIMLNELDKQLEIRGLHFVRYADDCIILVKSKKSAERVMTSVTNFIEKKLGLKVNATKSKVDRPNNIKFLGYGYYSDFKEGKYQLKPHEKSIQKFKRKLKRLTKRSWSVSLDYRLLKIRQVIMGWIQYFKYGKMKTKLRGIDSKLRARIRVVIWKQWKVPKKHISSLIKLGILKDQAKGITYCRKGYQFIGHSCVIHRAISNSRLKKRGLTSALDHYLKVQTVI

[4] = tested on: T4, MG153-40 RT (uncultivated organism (metagenomic))
T4 sequence: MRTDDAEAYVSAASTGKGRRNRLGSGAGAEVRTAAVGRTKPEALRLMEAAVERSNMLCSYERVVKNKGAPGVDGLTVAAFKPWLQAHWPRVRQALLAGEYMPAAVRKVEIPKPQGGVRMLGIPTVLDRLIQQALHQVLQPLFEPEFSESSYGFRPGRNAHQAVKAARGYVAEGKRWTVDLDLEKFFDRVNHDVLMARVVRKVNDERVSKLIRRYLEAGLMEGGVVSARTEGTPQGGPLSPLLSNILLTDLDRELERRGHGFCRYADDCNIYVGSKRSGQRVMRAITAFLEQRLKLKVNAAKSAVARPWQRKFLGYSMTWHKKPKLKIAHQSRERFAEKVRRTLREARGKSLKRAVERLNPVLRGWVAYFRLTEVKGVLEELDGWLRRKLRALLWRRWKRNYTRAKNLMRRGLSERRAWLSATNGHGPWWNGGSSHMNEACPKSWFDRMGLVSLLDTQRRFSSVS

[5] = tested on: T5, MG153-7 RT (uncultivated organism (metagenomic))
T5 sequence: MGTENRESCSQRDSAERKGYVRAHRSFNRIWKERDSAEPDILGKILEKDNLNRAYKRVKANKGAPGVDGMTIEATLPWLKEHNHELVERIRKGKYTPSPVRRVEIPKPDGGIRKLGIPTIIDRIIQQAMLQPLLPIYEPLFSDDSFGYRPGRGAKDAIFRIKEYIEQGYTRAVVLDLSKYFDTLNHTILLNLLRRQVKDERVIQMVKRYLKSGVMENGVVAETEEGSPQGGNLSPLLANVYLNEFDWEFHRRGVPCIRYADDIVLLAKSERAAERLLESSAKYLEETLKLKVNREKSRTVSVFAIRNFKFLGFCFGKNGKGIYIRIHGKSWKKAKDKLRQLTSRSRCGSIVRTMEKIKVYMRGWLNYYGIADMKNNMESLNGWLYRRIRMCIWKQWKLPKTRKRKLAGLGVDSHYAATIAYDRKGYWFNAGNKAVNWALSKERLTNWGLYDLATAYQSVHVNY

[6] = tested on: T6, MG153-8 RT (uncultivated organism (metagenomic))
T6 sequence: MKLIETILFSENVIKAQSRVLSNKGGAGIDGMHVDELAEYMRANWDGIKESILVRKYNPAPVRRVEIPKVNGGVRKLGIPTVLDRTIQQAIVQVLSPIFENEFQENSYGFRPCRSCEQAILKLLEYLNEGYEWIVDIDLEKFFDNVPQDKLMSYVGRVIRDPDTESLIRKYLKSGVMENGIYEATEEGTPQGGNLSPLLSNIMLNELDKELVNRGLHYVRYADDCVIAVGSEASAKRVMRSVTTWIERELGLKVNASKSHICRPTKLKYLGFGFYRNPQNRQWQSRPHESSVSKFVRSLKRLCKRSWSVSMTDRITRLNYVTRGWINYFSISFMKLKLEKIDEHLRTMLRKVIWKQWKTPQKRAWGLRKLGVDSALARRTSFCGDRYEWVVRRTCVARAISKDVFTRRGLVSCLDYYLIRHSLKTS

Measured: activity (fold over background)

200 nt RNA template annealed to DNA primer
> 10: all assays above
